One substance from paper PMC7910549 can be followed below.

In this experiment the target is GFP-tagged CSB (UniProt Q03468). As to the kind of experiment: affinity purification with mass spectrometry; label-free quantification and iBAQ; GFP-CSB pulled down with GFP Trap beads from U2OS CSB-KO cells; untreated against 20 J/m^2 UV-C with 1 h recovery.
Chain of UniProt Q03468 (Q03468 whole entry): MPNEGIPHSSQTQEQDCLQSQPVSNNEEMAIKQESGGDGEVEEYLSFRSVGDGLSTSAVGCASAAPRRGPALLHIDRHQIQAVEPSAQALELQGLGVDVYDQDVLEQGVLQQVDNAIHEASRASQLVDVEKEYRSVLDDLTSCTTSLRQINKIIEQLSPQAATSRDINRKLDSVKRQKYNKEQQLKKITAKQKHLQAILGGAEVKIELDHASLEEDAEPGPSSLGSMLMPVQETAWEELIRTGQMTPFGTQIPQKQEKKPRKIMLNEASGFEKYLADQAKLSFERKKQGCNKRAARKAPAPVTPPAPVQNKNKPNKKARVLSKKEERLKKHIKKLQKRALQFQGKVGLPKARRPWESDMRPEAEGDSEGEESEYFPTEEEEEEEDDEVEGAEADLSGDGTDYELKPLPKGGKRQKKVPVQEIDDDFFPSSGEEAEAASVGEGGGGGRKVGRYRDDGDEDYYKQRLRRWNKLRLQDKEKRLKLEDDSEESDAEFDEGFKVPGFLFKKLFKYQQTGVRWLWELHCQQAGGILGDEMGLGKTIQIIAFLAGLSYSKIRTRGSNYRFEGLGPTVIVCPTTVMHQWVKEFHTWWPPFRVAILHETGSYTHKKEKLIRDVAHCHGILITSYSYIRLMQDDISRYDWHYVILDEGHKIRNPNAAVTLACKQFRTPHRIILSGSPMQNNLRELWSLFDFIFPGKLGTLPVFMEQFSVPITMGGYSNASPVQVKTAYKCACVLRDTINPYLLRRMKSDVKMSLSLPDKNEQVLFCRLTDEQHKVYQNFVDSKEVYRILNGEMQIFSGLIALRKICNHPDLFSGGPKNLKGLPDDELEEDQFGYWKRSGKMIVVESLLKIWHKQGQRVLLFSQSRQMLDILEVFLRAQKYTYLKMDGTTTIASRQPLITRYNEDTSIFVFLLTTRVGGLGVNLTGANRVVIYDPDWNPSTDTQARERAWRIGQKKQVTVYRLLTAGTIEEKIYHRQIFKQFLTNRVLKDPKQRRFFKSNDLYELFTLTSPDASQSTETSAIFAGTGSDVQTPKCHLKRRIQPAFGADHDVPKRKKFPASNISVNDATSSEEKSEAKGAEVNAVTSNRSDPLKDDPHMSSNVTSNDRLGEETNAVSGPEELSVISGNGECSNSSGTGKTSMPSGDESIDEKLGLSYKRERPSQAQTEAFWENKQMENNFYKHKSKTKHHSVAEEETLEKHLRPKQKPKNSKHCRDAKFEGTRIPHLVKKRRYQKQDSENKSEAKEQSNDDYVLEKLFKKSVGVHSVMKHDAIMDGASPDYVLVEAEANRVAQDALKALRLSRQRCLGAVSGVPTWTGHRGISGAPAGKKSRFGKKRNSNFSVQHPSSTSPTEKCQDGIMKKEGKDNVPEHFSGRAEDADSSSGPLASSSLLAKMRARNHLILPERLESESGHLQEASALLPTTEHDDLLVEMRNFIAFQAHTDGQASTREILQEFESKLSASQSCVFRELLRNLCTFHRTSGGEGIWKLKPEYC

Substance “RNA polymerase II (RNAPII), endogenous (from UniProt P24928 1-1970) (complex)” had a percent of the isolated CSB molecules associated (iBAQ) greater than 60%.
